Each block holds one molecule with its values, some of them ahead of it. Non-standard residues stand in square brackets, D forms with d. No end group written: not given here. *: point of attachment. Phe(F5) = N[C@@H](Cc1c(F)c(F)c(F)c(F)c1F)C(=O)O; Desaminotyrosyl = O=C(CCc1ccc(O)cc1)*; NMeY = CN[C@@H](Cc1ccc(O)cc1)C(=O)O; hArg = N=C(N)NCCCC[C@H](N)C(=O)O; Agmatine = N=C(N)NCCCCN*; Nle = CCCC[C@H](N)C(=O)O; Orn = NCCC[C@H](N)C(=O)O; Abu = CC[C@H](N)C(=O)O; Ava = NCCCCC(=O)O; GABA = NCCCC(=O)O
Columns and labels:
[1] = molecular target: T1, human GHRH receptor (human pituitary membrane homogenates) (human) (UniProt Q02643); assay: radioligand competition vs 125I-JV-1-42 (0.2 nM), human pituitary membranes
T1 sequence (looked up): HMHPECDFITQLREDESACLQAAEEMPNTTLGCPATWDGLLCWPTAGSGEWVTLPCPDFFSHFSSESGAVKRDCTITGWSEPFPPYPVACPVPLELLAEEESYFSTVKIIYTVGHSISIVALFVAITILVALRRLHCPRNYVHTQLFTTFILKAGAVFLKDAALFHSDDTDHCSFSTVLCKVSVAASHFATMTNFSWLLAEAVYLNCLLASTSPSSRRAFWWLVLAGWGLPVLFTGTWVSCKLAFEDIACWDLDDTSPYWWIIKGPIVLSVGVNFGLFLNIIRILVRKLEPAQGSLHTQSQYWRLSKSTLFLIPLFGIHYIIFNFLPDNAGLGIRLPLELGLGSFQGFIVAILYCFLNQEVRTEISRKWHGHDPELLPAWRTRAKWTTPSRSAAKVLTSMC

[2] = molecular target: T1, human GHRH receptor (human pituitary membrane homogenates) (human); assay: radioligand competition vs [His1,125I-Tyr10,Nle27]hGHRH(1-32)NH2 (0.2 nM), human pituitary membranes
[3] = molecular target: T1, human GHRH receptor (human pituitary membrane homogenates) (human); assay: radioligand competition vs 125I-JV-1-42 (0.2 nM), human pituitary membranes; remark: listed apart in the source
[4] = molecular target: T2, human GHRH receptor (human pituitary membrane homogenates) (human, UniProt Q02643 23-423); assay: radioligand competition vs [His1,125I-Tyr10,Nle27]hGHRH(1-32)NH2 (0.2 nM), human pituitary membranes
T2 construct: whole, on cells; Native receptor in human pituitary membrane homogenates, not on intact cells; also called hGHRH receptor
T2 sequence (looked up): T1 sequence (looked up)
Source text: Normal human pituitaries were purchased from the National Hormone and Peptide Program (A. F. Parlow, Los Angeles, County Harbor—UCLA Medical Center, Torrance, Calif.).

[5] = molecular target: T2, human GHRH receptor (human pituitary …); assay: radioligand competition vs 125I-JV-1-42 (0.2 nM), human pituitary membranes
Source text: (§1) Normal human pituitaries were purchased from the National Hormone and Peptide Program (A. F. Parlow, Los Angeles, County Harbor-UCLA Medical Center, Torrance, Calif.).

[6] = molecular target: T2, human GHRH receptor (human pituitary …); assay: as above; remark: listed apart in the source
Source text: as §1

Molecule: JI-38 (peptide)
Relative affinity (Binding potency) vs GHRH [1]: 2.4 fold
Relative affinity (Binding potency) vs JI-38 [1]: 1 fold
Relative affinity (Binding potency) vs GHRH [2]: 3.03 fold
Relative affinity (Binding potency) vs JI-38 [2]: 1 fold

Molecule: JI-34 (peptide)
Relative affinity (Binding potency) vs GHRH [2]: 4.32 fold

B1: P-23254 [Dat^1, D-Ala^2, Thr^8, Orn^12, Abu^15, Orn^21, Nle^27, Asp^28, Har^30]hGHRH(1-30)NH2 (peptide)
peptide: [Desaminotyrosyl][dA]DAIFTTSYR[Orn]VL[Abu]QLSAR[Orn]LLQDI[Nle]DR[hArg]-NH2
SMILES: CCCC[C@H](NC(=O)[C@@H](NC(=O)[C@H](CC(=O)O)NC(=O)[C@H](CCC(N)=O)NC(=O)[C@H](CC(C)C)NC(=O)[C@H](CC(C)C)NC(=O)[C@H](CCCN)NC(=O)[C@H](CCCNC(=N)N)NC(=O)[C@H](C)NC(=O)[C@H](CO)NC(=O)[C@H](CC(C)C)NC(=O)[C@H](CCC(N)=O)NC(=O)[C@H](CC)NC(=O)[C@H](CC(C)C)NC(=O)[C@@H](NC(=O)[C@H](CCCN)NC(=O)[C@H](CCCNC(=N)N)NC(=O)[C@H](Cc1ccc(O)cc1)NC(=O)[C@H](CO)NC(=O)[C@@H](NC(=O)[C@@H](NC(=O)[C@H](Cc1ccccc1)NC(=O)[C@@H](NC(=O)[C@H](C)NC(=O)[C@H](CC(=O)O)NC(=O)[C@@H](C)NC(=O)CCc1ccc(O)cc1)[C@@H](C)CC)[C@@H](C)O)[C@@H](C)O)C(C)C)[C@@H](C)CC)C(=O)N[C@@H](CC(=O)O)C(=O)N[C@@H](CCCNC(=N)N)C(=O)N[C@@H](CCCCNC(=N)N)C(N)=O
notes: also called Peptide 23254
Relative affinity (Binding potency) vs GHRH [4]: 84.5 fold
Relative affinity (Binding potency) vs JI-38 [4]: 27.8 fold

B2: P-23256 [Dat^1, D-Ala^2, Ala^8, Orn^12, Abu^15, Orn^21, Nle^27, Asp^28, Har^30]hGHRH(1-30)NH2 (peptide)
peptide: [Desaminotyrosyl][dA]DAIFTASYR[Orn]VL[Abu]QLSAR[Orn]LLQDI[Nle]DR[hArg]-NH2
SMILES: CCCC[C@H](NC(=O)[C@@H](NC(=O)[C@H](CC(=O)O)NC(=O)[C@H](CCC(N)=O)NC(=O)[C@H](CC(C)C)NC(=O)[C@H](CC(C)C)NC(=O)[C@H](CCCN)NC(=O)[C@H](CCCNC(=N)N)NC(=O)[C@H](C)NC(=O)[C@H](CO)NC(=O)[C@H](CC(C)C)NC(=O)[C@H](CCC(N)=O)NC(=O)[C@H](CC)NC(=O)[C@H](CC(C)C)NC(=O)[C@@H](NC(=O)[C@H](CCCN)NC(=O)[C@H](CCCNC(=N)N)NC(=O)[C@H](Cc1ccc(O)cc1)NC(=O)[C@H](CO)NC(=O)[C@H](C)NC(=O)[C@@H](NC(=O)[C@H](Cc1ccccc1)NC(=O)[C@@H](NC(=O)[C@H](C)NC(=O)[C@H](CC(=O)O)NC(=O)[C@@H](C)NC(=O)CCc1ccc(O)cc1)[C@@H](C)CC)[C@@H](C)O)C(C)C)[C@@H](C)CC)C(=O)N[C@@H](CC(=O)O)C(=O)N[C@@H](CCCNC(=N)N)C(=O)N[C@@H](CCCCNC(=N)N)C(N)=O
notes: also called Peptide 23256
Relative affinity (Binding potency) vs GHRH [4]: 148 fold
Relative affinity (Binding potency) vs JI-38 [4]: 48.7 fold

B3: P-25502 [Dat^1, D-Ala^2, Fpa5^6, Orn^12, Abu^15, Orn^21, Nle^27, Gab^30]hGHRH(1-30)NH2 (peptide)
peptide: [Desaminotyrosyl][dA]DAI[Phe(F5)]TNSYR[Orn]VL[Abu]QLSAR[Orn]LLQDI[Nle]SR[GABA]-NH2
SMILES: CCCC[C@H](NC(=O)[C@@H](NC(=O)[C@H](CC(=O)O)NC(=O)[C@H](CCC(N)=O)NC(=O)[C@H](CC(C)C)NC(=O)[C@H](CC(C)C)NC(=O)[C@H](CCCN)NC(=O)[C@H](CCCNC(=N)N)NC(=O)[C@H](C)NC(=O)[C@H](CO)NC(=O)[C@H](CC(C)C)NC(=O)[C@H](CCC(N)=O)NC(=O)[C@H](CC)NC(=O)[C@H](CC(C)C)NC(=O)[C@@H](NC(=O)[C@H](CCCN)NC(=O)[C@H](CCCNC(=N)N)NC(=O)[C@H](Cc1ccc(O)cc1)NC(=O)[C@H](CO)NC(=O)[C@H](CC(N)=O)NC(=O)[C@@H](NC(=O)[C@H](Cc1c(F)c(F)c(F)c(F)c1F)NC(=O)[C@@H](NC(=O)[C@H](C)NC(=O)[C@H](CC(=O)O)NC(=O)[C@@H](C)NC(=O)CCc1ccc(O)cc1)[C@@H](C)CC)[C@@H](C)O)C(C)C)[C@@H](C)CC)C(=O)N[C@@H](CO)C(=O)N[C@@H](CCCNC(=N)N)C(=O)NCCCC(N)=O
notes: also called Peptide 25502; MR-502
Relative affinity (Binding potency) vs GHRH [5]: 58 fold
Relative affinity (Binding potency) vs JI-38 [5]: 24.4 fold
Relative affinity (Binding potency) vs JI-38 [6]: 13.2 fold

B4: P-22325 [N-Me-Tyr^1, Gln^8, Orn^12, Abu^15, Orn^21, Nle^27, Asp^28, Apa^30]hGHRH(1-30)NH2 (peptide, from a related filing)
peptide: [NMeY]ADAIFTQSYR[Orn]VL[Abu]QLSAR[Orn]LLQDI[Nle]DR[Ava]-NH2
Relative affinity (Binding potency) vs JI-38 [3]: 1.14 fold

Other lines, results leading:

Relative affinity (Binding potency) vs JI-38 [3]: 14.5 fold
Molecule: P-27406 [N-Me-Tyr^1, Gln^8, Orn^12, Abu^15, Orn^21, Nle^27, Asp^28]hGHRH(1-29)NH-CH3 (peptide)

Relative affinity (Binding potency) vs GHRH [1]: 406 fold
Relative affinity (Binding potency) vs JI-38 [1]: 171 fold
Relative affinity (Binding potency) vs JI-38 [3]: 16.1 fold
Molecule: P-20356 [N-Me-Tyr^1, Gln^8, Orn^12, Abu^15, Orn^21, Nle^27, Asp^28, Agm^29]hGHRH(1-29)NH2 (peptide)

Relative affinity (Binding potency) vs JI-38 [3]: 1.45 fold
Molecule: P-27407 [Dat^1, Gln^8, Orn^12, Abu^15, Orn^21, Nle^27, Asp^28]hGHRH(1-29)NH-CH3 (peptide)

Relative affinity (Binding potency) vs GHRH [2]: 3.25 fold
Molecule: JI-36 (peptide)

Relative affinity (Binding potency) vs JI-38 [3]: 2.18 fold
B5: P-22327 [Dat^1, Gln^8, Orn^12, Abu^15, Orn^21, Nle^27, Asp^28, Apa^30]hGHRH(1-30)NH2 (peptide, from a related filing)
peptide: [Desaminotyrosyl]ADAIFTQSYR[Orn]VL[Abu]QLSAR[Orn]LLQDI[Nle]DR[Ava]-NH2
SMILES: CCCC[C@H](NC(=O)[C@@H](NC(=O)[C@H](CC(=O)O)NC(=O)[C@H](CCC(N)=O)NC(=O)[C@H](CC(C)C)NC(=O)[C@H](CC(C)C)NC(=O)[C@H](CCCN)NC(=O)[C@H](CCCNC(=N)N)NC(=O)[C@H](C)NC(=O)[C@H](CO)NC(=O)[C@H](CC(C)C)NC(=O)[C@H](CCC(N)=O)NC(=O)[C@H](CC)NC(=O)[C@H](CC(C)C)NC(=O)[C@@H](NC(=O)[C@H](CCCN)NC(=O)[C@H](CCCNC(=N)N)NC(=O)[C@H](Cc1ccc(O)cc1)NC(=O)[C@H](CO)NC(=O)[C@H](CCC(N)=O)NC(=O)[C@@H](NC(=O)[C@H](Cc1ccccc1)NC(=O)[C@@H](NC(=O)[C@H](C)NC(=O)[C@H](CC(=O)O)NC(=O)[C@H](C)NC(=O)CCc1ccc(O)cc1)[C@@H](C)CC)[C@@H](C)O)C(C)C)[C@@H](C)CC)C(=O)N[C@@H](CC(=O)O)C(=O)N[C@@H](CCCNC(=N)N)C(=O)NCCCCC(N)=O

Relative affinity (Binding potency) vs GHRH [5]: 102 fold
Relative affinity (Binding potency) vs JI-38 [5]: 42.7 fold
Relative affinity (Binding potency) vs JI-38 [6]: 8.37 fold
B6: P-20350 [Dat^1, D-Ala^2, Gln^8, Orn^12, Abu^15, Orn^21, Nle^27, Asp^28, Agm^29]hGHRH(1-29)NH2 (peptide)
peptide: [Desaminotyrosyl][dA]DAIFTQSYR[Orn]VL[Abu]QLSAR[Orn]LLQDI[Nle]D[Agmatine]
SMILES: CCCC[C@H](NC(=O)[C@@H](NC(=O)[C@H](CC(=O)O)NC(=O)[C@H](CCC(N)=O)NC(=O)[C@H](CC(C)C)NC(=O)[C@H](CC(C)C)NC(=O)[C@H](CCCN)NC(=O)[C@H](CCCNC(=N)N)NC(=O)[C@H](C)NC(=O)[C@H](CO)NC(=O)[C@H](CC(C)C)NC(=O)[C@H](CCC(N)=O)NC(=O)[C@H](CC)NC(=O)[C@H](CC(C)C)NC(=O)[C@@H](NC(=O)[C@H](CCCN)NC(=O)[C@H](CCCNC(=N)N)NC(=O)[C@H](Cc1ccc(O)cc1)NC(=O)[C@H](CO)NC(=O)[C@H](CCC(N)=O)NC(=O)[C@@H](NC(=O)[C@H](Cc1ccccc1)NC(=O)[C@@H](NC(=O)[C@H](C)NC(=O)[C@H](CC(=O)O)NC(=O)[C@@H](C)NC(=O)CCc1ccc(O)cc1)[C@@H](C)CC)[C@@H](C)O)C(C)C)[C@@H](C)CC)C(=O)N[C@@H](CC(=O)O)C(=O)NCCCCNC(=N)N
notes: also called Peptide 20350

Reference: patent US20140193378A1 (UNIVERSITY OF MIAMI, published 2014)
